Key:
[1] = Determination of Log P (octanol/water partition coefficient) of europium complexes; format: physicochemical; conditions: water/octanol mixtures 2:1, 1:1, 1:2, about 2 μM, ±20%
Source text: Log P is a measure of the differential solubility of chemical compounds in two solvents (octanol/water partition coefficient). Log P is equal to the logarithm of the ratio of the concentrations of the substance under investigation in octanol and in water. Log P=Log(Coct/Cwater). This value ascertains the hydrophilic or hydrophobic (lipophilic) character of a molecule. In fact, if Log P is positive and very high, this expresses the fact that the molecule considered is far more soluble in octanol than in water, which reflects its lipophilic character, and vice versa. Zero or negative Log P signifies that the molecule is of a hydrophilic character.
Three equimolar solutions of europium complex were prepared in methanol. The solvent was removed under reduced pressure and the solid that remained was dissolved and stirred for 24 h in a water/octanol mixture (2:1, 1:1, 1:2), (0.9 mL) giving a total concentration of about 2 μM. After equilibration, an emission spectrum of each phase was recorded in methanol (50 μL of solution in 1 mL of methanol). For each mixture, the value of log P was calculated using the following equation: […]

[2] = Photophysical properties of the complexes (λ max, quantum yield, life-time); format: physicochemical; conditions: solvent MeOH
Source text: The photophysical characteristics of some complexes are described in Table 3. […] The values of the quantum yields (Φcm) must be considered to have a margin of error of ±15%. All these complexes have quantum yields above 10%, without adding potassium fluorides. The life-times (τ0) are at least 0.7 ms, which is favorable for FRET experiments. Finally, the complexes comprising solubilizer groups of the sulfonate or carboxylate type are highly soluble in aqueous biological buffers. The presence of charges makes complexes water-soluble that were not so initially.

COc1ccc(C#Cc2cc(CN3CCN(Cc4cc(C#Cc5ccc(OC)cc5)cc(P(C)(=O)O)n4)CCN(Cc4cc(C#Cc5ccc(OCC(=O)NCC(=O)N[C@@H](CCCNC(=N)N)C(=O)N[C@@H](CCCNC(=N)N)C(=O)N[C@@H](CCCNC(=N)N)C(=O)N[C@@H](CCCNC(=N)N)C(=O)N[C@@H](CCCNC(=N)N)C(=O)N[C@@H](CCCNC(=N)N)C(=O)N[C@@H](CCCNC(=N)N)C(=O)O)cc5)cc(P(C)(=O)O)n4)CC3)nc(P(C)(=O)O)c2)cc1 [Compound 89]
logP [1]: 0.3 | λ max [2]: 330 nm | τ0 [2]: 1.12 ms | Φem ([2]; margin of error ±15%): 50%

From US9920082B2, “Water-soluble complexing agents and corresponding lanthanide complexes” (CISBIO BIOASSAYS, priority 2013, dated 2018)
